From publication PMC2586147

Molecular target: K401-BIO-H6 R210K (Drosophila) (UniProt P17210)
Assay: AUC

| stoichiometry N | Substance |
| --- | --- |
| 2 | K401 (from UniProt P17210 1-401) (domain or fragment) |
| 2 | K401-BIO-H6 R210K (from UniProt P17210 1-401) (domain or fragment) |
